PMC4333382, “RNA helicase A activity is inhibited by oncogenic transcription factor EWS-FLI1” (Nucleic Acids Research, 2015)

Experiments:
EWS-FLI1 [1] = target: T1, EWS-FLI1 (UniProt F1JVV7); experiment: competition; 30 nM EWS-FLI1, competes with 32P HDV RNA (N1?); EMSA: 25 mM HEPES pH 7.4, 80 mM NaCl, 2 mM MgCl2, 2 mM DTT, Superase In, 5 pmol 32P-RNA, 10 min room temperature, 6% native PAGE 0.5x TBE; AFM: 25 mM HEPES pH 7.4, 2 mM MgCl2, 1 mM TCEP, 25 C, 1 min; settings: protein: recombinant; blunt
T1 chain: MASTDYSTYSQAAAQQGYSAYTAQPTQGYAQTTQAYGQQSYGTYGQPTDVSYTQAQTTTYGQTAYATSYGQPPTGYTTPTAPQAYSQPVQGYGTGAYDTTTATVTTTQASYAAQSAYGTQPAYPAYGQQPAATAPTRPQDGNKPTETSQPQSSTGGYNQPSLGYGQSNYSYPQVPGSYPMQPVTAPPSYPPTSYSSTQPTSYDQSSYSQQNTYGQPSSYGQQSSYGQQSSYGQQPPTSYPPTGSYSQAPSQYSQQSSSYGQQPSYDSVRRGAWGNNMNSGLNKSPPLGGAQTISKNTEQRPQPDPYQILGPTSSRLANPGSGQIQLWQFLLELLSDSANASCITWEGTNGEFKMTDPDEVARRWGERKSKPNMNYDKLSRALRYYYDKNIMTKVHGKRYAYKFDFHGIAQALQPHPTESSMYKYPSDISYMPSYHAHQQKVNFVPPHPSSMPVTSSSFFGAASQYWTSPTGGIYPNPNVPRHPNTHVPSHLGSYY

EWS-FLI1 [2] = target: T1, EWS-FLI1; experiment: as above; settings: protein: recombinant; blunt

Binder | binding signal (EWS-FLI1 [1]) | binding result (EWS-FLI1 [2])
mut ets-DNA (GGAA to GCTA) (dsDNA) DNA 1: ATGTAGACCGCTAGTAACTA DNA 2: TAGTTACTAGCGGTCTACAT | 30 % of wild-type efficiency at displacing RNA | 
wt ets-DNA (dsDNA) DNA 1: ATGTAGACCGGAAGTAACTA DNA 2: TAGTTACTTCCGGTCTACAT |  | binds
